What was measured:
[1] = target: bfloGFPa1, green fluorescent protein of Amphioxus (Branchiostoma floridae) (Branchiostoma floridae); experiment: SEC; size exclusion chromatography of the purified protein (Fig. S1); column and buffer not told
[2] = target: bfloGFPc1, green fluorescent protein of Amphioxus (Branchiostoma floridae) (Branchiostoma floridae); experiment: as above

| stoichiometry N [1] | stoichiometry N [2] | Substance |
| --- | --- | --- |
| 2 | – | bfloGFPa1, green fluorescent protein of Amphioxus (Branchiostoma floridae) (natural protein) |
| – | 2 | bfloGFPc1, green fluorescent protein of Amphioxus (Branchiostoma floridae) (natural protein) |
